{"source": "patent US20230355761A1", "about": "(CRISPR THERAPEUTICS, published 2023)", "target": "T1, CD70 on human cancer cell lines (A498, ACHN, SK-OV-3, Hs 766T, NCI-H1975, Calu-1, DU 145, SNU-1, MM.1S, HuT78) (human, UniProt P32970 1-193)", "T1 sequence (looked up)": "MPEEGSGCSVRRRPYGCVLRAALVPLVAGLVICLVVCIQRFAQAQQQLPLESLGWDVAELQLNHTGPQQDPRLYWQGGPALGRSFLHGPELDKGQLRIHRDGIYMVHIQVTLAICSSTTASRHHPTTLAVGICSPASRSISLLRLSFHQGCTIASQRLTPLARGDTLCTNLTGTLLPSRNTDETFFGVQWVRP", "assay": "cell-based or functional assay", "data": [{"binder": "anti-CD70 CAR (CD70B scFv with 41BB), as expressed on the surface of gene-edited human T cells (CTX130; TRAC-/β2M-/CD70-/anti-CD70 CAR+ T cells) (other) QVQLVQSGAEVKKPGASVKVSCKASGYTFTNYGMNWVRQAPGQGLKWMGWINTYTGEPTYADAFKGRVTMTRDTSISTAYMELSRLRSDDTAVYYCARDYGDYGMDYWGQGTTVTVSSGGGGSGGGGSGGGGSGDIVMTQSPDSLAVSLGERATINCRASKSVSTSGYSFMHWYQQKPGQPPKLLIYLASNLESGVPDRFSGSGSGTDFTLTISSLQAEDVAVYYCQHSREVPWTFGQGTKVEIKSAAAFVPVFLPAKPTTTPAPRPPTPAPTIASQPLSLRPEACRPAAGGAVHTRGLDFACDIYIWAPLAGTCGVLLLSLVITLYCNHRNRKRGRKKLLYIFKQPFMRPVQTTQEEDGCSCRFPEEEEGGCELRVKFSRSADAPAYQQGQNQLYNELNLGRREEYDVLDKRRGRDPEMGGKPRRKNPQEGLYNELQKDKMAEAYSEIGMKGERRRGKGHDGLYQGLSTATKDTYDALHMQALPPR", "values": [{"measurement": "cell kill of A498, ACHN, SK-OV-3 and Hs-766T cells by 3X KO CD70 CAR+ T cells, flow cytometry, 24 h, 1:1 effector:target cell ratio", "result": "> 50", "unit": "%"}, {"measurement": "cell kill of A498, ACHN, SK-OV-3 and Hs-766T cells by 3X KO CD70 CAR+ T cells, flow cytometry, 24 h, 4:1 effector:target cell ratio", "result": "> 60", "unit": "%"}, {"measurement": "cell kill of NCI-H1975, Calu-1 and DU 145 cells (medium to low CD70 expression) by 3X KO CD70 CAR+ T cells, flow cytometry, 24 h, 4:1 effector:target cell ratio", "result": "> 30", "unit": "%"}, {"measurement": "cell kill of SKOV-3, Hs-766T and NCI-H1975 cells by 3X KO CD70 CAR+ T cells, flow cytometry, 96 h, 1:1 effector:target cell ratio", "result": "> 80", "unit": "%"}, {"measurement": "cell lysis of CD70+ A498 cells by TRAC-/β2M-/CD70-/anti-CD70 CAR+ T cells, Cell titer-Glo, 24 h, T cell:A498 ratios 1:1 and 0.5:1", "result": "> 90", "unit": "%"}, {"measurement": "cell lysis of CD70+ A498 cells by TRAC-/β2M-/anti-CD70 CAR+ T cells (2X KO), Cell titer-Glo, 24 h, T cell:A498 ratios 1:1 and 0.5:1", "result": "< 90", "unit": "%"}]}]}
